The values below come from patent US20250207119A1.

Targets include ADAM9 from R & D Systems (UniProt Q13443); MMP 12 (UniProt P39900); MMP 14 (UniProt P50281); MMP 2 (UniProt P08253); MMP 3 (UniProt P08254); MMP 9 (UniProt P14780).
What all share (experiment): cell-based or functional assay
In test [1] the target is ADAM17 from R & D Systems (UniProt P78536).
The target in test [2] is Human ADAM10 from R & D Systems (human) (UniProt O14672).
Test [3] concerns the target Meprin from R & D Systems.

Sequence of ADAM17 from R & D Systems (P78536 215-671 limits assumed): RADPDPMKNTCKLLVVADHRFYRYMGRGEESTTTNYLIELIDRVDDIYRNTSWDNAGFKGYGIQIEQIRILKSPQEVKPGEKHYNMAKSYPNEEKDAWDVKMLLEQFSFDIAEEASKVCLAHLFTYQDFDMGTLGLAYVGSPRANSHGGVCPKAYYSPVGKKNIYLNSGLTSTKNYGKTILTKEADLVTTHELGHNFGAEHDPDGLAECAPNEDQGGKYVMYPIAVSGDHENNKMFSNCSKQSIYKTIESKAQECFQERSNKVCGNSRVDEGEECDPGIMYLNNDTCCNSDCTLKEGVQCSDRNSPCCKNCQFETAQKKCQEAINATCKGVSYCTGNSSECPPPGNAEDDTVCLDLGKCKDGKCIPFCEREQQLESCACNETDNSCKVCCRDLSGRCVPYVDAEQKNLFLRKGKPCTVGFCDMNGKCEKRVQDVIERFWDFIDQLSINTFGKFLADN
Sequence of Human ADAM10 from R & D Systems (human) (O14672 214-672 limits assumed): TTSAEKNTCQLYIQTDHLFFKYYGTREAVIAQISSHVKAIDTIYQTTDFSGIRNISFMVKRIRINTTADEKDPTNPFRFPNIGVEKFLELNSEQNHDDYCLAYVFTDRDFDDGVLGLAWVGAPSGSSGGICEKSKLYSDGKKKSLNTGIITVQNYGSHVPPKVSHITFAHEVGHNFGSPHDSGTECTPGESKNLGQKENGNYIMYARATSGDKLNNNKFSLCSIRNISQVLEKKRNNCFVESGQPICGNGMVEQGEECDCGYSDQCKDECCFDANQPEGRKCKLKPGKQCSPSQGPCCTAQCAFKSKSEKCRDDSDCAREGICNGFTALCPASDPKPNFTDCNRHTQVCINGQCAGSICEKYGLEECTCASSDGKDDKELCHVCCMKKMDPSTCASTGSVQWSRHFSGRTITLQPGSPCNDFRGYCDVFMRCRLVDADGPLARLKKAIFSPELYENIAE
Sequence of MMP 12 (P39900 17-470 limits assumed): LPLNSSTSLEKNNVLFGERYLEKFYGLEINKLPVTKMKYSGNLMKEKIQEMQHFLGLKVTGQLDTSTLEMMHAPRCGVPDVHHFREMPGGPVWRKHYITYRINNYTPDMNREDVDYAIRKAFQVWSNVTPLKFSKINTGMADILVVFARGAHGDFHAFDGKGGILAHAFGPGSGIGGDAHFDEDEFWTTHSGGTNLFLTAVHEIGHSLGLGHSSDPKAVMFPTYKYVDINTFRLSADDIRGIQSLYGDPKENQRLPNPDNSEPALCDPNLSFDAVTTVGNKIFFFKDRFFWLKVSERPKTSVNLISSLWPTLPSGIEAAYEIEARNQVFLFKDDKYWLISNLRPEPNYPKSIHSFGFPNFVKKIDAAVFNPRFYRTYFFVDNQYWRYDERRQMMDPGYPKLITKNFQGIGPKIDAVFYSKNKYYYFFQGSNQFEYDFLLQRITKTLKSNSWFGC
Sequence of MMP 3 (P08254 18-477 limits assumed): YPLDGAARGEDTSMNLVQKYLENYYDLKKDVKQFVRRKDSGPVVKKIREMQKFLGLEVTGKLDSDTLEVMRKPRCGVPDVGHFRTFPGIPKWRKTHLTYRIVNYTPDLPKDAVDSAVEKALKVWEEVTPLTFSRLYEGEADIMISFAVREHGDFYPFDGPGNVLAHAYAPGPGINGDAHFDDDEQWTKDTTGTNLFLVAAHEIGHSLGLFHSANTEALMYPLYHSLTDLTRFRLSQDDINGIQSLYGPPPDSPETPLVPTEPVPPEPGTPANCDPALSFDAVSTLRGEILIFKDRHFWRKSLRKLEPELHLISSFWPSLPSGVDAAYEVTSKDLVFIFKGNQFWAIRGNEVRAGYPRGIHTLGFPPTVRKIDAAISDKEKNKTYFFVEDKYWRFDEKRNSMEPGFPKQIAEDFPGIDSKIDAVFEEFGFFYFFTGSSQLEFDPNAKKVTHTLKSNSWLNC
Sequence of MMP 9 (P14780 20-707 limits assumed): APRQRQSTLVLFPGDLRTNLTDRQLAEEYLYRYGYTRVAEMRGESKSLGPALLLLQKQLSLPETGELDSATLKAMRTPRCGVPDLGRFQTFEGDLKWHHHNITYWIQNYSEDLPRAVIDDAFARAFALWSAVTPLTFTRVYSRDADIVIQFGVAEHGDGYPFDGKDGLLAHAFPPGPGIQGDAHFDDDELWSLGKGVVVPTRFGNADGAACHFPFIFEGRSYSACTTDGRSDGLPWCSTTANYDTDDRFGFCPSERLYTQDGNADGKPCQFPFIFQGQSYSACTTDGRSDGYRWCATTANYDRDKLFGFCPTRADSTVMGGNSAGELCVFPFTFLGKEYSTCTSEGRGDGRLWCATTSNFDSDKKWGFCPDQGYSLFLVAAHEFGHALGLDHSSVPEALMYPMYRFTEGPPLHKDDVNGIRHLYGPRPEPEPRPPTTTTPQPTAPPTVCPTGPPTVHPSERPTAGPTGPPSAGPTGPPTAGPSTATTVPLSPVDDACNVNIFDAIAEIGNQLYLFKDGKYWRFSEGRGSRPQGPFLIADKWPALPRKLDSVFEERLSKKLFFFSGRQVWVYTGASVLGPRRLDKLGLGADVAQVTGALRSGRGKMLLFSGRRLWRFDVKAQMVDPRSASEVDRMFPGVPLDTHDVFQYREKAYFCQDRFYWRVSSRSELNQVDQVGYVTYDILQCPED
Sequence of MMP 2 (P08253 30-660 limits assumed): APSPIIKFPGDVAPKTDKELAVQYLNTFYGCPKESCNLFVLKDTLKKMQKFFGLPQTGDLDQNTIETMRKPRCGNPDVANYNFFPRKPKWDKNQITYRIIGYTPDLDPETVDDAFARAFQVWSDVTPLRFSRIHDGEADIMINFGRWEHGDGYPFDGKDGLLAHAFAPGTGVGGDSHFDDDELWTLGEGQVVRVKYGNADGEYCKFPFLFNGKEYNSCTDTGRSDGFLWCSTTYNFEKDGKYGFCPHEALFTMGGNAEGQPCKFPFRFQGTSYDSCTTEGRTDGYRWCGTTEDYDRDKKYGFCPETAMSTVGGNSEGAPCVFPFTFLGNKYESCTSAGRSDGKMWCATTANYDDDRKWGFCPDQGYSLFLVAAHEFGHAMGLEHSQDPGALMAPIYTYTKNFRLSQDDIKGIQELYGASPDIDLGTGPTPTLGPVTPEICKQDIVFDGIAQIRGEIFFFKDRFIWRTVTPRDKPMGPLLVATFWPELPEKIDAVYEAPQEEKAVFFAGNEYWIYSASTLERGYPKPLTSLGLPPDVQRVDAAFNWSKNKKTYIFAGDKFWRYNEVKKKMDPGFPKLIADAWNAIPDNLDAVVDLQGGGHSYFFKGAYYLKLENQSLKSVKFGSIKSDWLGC
Sequence of ADAM9 from R & D Systems (Q13443 29-697 limits assumed): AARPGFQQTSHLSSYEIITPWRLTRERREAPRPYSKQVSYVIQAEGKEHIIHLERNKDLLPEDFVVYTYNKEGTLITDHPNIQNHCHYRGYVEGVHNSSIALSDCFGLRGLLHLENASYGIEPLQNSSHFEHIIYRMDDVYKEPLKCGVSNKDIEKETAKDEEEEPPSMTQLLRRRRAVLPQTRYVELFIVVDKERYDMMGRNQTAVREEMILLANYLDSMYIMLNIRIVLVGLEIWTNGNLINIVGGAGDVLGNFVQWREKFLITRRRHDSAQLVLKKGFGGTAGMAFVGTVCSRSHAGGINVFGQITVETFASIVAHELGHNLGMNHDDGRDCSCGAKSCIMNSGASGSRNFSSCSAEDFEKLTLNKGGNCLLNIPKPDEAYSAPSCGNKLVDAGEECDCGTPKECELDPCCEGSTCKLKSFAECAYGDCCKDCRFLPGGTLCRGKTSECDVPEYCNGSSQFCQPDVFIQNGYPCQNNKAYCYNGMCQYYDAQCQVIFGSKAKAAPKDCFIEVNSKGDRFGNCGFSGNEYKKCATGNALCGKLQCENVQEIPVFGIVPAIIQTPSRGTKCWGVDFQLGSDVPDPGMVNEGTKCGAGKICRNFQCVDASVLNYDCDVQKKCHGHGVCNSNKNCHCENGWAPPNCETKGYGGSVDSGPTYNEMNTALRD

“SEQ ID NO: 1 (human wild type ADAM10 prodomain peptide, amino acids 23-211 of NP_001101.1)” registered a percent inhibition of ADAM17 activity in [1] of 28 % at 8 µM. Besides, in the test with ADAM9 from R & D Systems, the percent inhibition of ADAM9 activity is 0 % at 8 µM. This substance yielded an IC50 (nM), inhibition of ADAM10 cleavage of the fluorescent substrate PEPDAB064 in [2] of 17 nM. The percent inhibition of MMP activity (PEPDAB008 substrate) with MMP 12, with MMP 14, in the test with MMP 2, with MMP 3 and with MMP 9 was 0 % at 8 µM throughout. Moreover, the IC50 (nM), inhibition of meprin cleavage of the fluorescent substrate PEPDAB022 in [3] amounted to 185 nM.
